Molecular target: recombinant human PD-L1, Fc-tagged (rhPD-L1-Fc) (human, UniProt Q9NZQ7 19-238)
Experiment: FACS

recombinant human PD-L1, Fc-tagged (rhPD-L1-Fc), sequence (Q9NZQ7 19-238): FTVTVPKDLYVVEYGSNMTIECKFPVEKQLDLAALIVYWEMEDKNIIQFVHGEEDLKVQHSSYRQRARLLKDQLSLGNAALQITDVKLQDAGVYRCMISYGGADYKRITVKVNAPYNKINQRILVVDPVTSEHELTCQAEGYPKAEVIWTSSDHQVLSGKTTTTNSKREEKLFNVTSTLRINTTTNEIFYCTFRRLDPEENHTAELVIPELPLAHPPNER

Binder | Kd [nM]
scFv-yeast clone 3_14 (scFv, V domains shown) VH: not shown VL: NFMLTQPHSVSESPGKTITISCTRSSGSIAGNYVQWYQQRPGSAPIIVIYEDNQRPSGVPDRFSGSIDSSSNSASLTISRLKTEDEADYYCQSYEASNVVFGGGTKLTVL | 0.58
scFv-yeast clone 3_7 (scFv, V domains shown) VH: not shown VL: NFMLTQPHSVSESPGKTITISCTRSSGSIAGNYVQWYQQRPGSAPIIVIYEDNQRPSGVPDRFSGSIDSSSNSASLTISRLKTEDEADYYCQSYEASNVVFGGGTKLTVL | 0.68
scFv-yeast clone 3_3 (scFv, V domains shown) VH: not shown VL: NFMLTQPHSVSESPGKTITISCTRSSGSIAGNYVQWYQQRPGSAPIIVIYEDNQRPSGVPDRFSGSIDSSSNSASLTISRLKTEDEADYYCQSYEASNVVFGGGTKLTVL | 0.6

Results, then the binder that gave them:

Kd [nM] | Binder
0.46 | scFv-yeast clone 3_17 (scFv, V domains shown) VH: not shown VL: NFMLTQPHSVSESPGKTITISCTRSSGSIAGNYVQWYQQRPGSAPIIVIYEDNQRPSGVPDRFSGSIDSSSNSASLTISRLKTEDEADYYCQSYEASNVVFGGGTKLTVL
0.5 | scFv-yeast clone 10_3 (scFv, V domains shown) VH: not shown VL: NFMLTQPHSVSESPGKTITISCTRSSGSIAGNYVQWYQQRPGSAPIIVIYEDNQRPSGVPDRFSGSIDSSSNSASLTISRLKTEDEADYYCQSYEASNVVFGGGTKLTVL
4.55 | wild type anti-PD-L1 scFv PD-L1_1 displayed on yeast (scFv, V domains shown) VH: not shown VL: NFMLTQPHSVSESPGKTITISCTRSSGSIAGNYVQWYQQRPGSAPIIVIYEDNQRPSGVPDRFSGSIDSSSNSASLTISRLKTEDEADYYCQSYEASNVVFGGGTKLTVL
0.73 | scFv-yeast clone 10_12 (scFv, V domains shown) VH: not shown VL: NFMLTQPHSVSESPGKTITISCTRSSGSIAGNYVQWYQQRPGSAPIIVIYEDNQRPSGVPDRFSGSIDSSSNSASLTISRLKTEDEADYYCQSYEASNVVFGGGTKLTVL

Molecular target: PD-L1 expressed in its native conformation on activated human PBMCs (human (endogenous in hPBMCs), UniProt Q9NZQ7 19-290)
Experiment: FACS

PD-L1 expressed in its native conformation on activated human PBMCs, sequence (Q9NZQ7 19-290): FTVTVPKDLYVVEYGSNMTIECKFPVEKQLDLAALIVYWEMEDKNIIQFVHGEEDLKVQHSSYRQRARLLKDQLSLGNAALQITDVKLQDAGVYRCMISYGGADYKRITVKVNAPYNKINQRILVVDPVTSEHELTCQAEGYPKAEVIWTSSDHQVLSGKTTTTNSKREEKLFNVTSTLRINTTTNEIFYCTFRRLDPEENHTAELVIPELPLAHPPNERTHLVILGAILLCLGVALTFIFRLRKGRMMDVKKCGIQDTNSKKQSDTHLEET

Kd [nM] | Binder
2 | mAb 10_3 (IgG4 converted from scFv 10_3) (antibody, V domains shown) VH: not shown VL: NFMLTQPHSVSESPGKTITISCTRSSGSIAGNYVQWYQQRPGSAPIIVIYEDNQRPSGVPDRFSGSIDSSSNSASLTISRLKTEDEADYYCQSYEASNVVFGGGTKLTVL

From article PMC6959147 (2019)
